How the values were obtained:
crystal structure = target: the molecule itself; experiment: crystal structure
SEC = target: the molecule itself; experiment: SEC

Row | Protein | stoichiometry N (crystal structure) | stoichiometry N (SEC)
1 | yGsy2-R589A/R592A (enzyme, Saccharomyces cerevisiae) MSRDLQNHLLFETATEVANRVGGIYSVLKSKAPITVAQYKDHYHLIGPLNKATYQNEVDILDWKKPEAFSDEMRPVQHALQTMESRGVHFVYGRWLIEGAPKVILFDLDSVRGYSNEWKGDLWSLVGIPSPENDFETNDAILLGYTVAWFLGEVAHLDSQHAIVAHFHEWLAGVALPLCRKRRIDVVTIFTTHATLLGRYLCASGSFDFYNCLESVDVDHEAGRFGIYHRYCIERAAAHSADVFTTVSQITAFEAEHLLKRKPDGILPNGLNVIKFQAFHEFQNLHALKKEKINDFVRGHFHGCFDFDLDNTLYFFIAGRYEYKNKGADMFIEALARLNYRLKVSGSKKTVVAFIVMPAKNNSFTVEALKGQAEVRALENTVHEVTTSIGKRIFDHAIRYPHNGLTTELPTDLGELLKSSDKVMLKRRILALRRPEGQLPPIVTHNMVDDANDLILNKIRQVQLFNSPSDRVKMIFHPEFLNANNPILGLDYDEFVRGCHLGVFPSYYEPWGYTPAECTVMGVPSITTNVSGFGAYMEDLIETNQAKDYGIYIVDRRFKAPDESVEQLVDYMEEFVKKTRRQRINQRNATEALSDLLDWKRMGLEYVKARQLALRRGYPDQFRELVGEELNDSNMDALAGGKKLKVARPLSVPGSPRDLRSNSTVYMTPGDLGTLQEVNNADDYFSLGVNPAADDDDDGPYADDS | 4 | –
2 | yGsy2-R581A/R592A (enzyme, Saccharomyces cerevisiae) MSRDLQNHLLFETATEVANRVGGIYSVLKSKAPITVAQYKDHYHLIGPLNKATYQNEVDILDWKKPEAFSDEMRPVQHALQTMESRGVHFVYGRWLIEGAPKVILFDLDSVRGYSNEWKGDLWSLVGIPSPENDFETNDAILLGYTVAWFLGEVAHLDSQHAIVAHFHEWLAGVALPLCRKRRIDVVTIFTTHATLLGRYLCASGSFDFYNCLESVDVDHEAGRFGIYHRYCIERAAAHSADVFTTVSQITAFEAEHLLKRKPDGILPNGLNVIKFQAFHEFQNLHALKKEKINDFVRGHFHGCFDFDLDNTLYFFIAGRYEYKNKGADMFIEALARLNYRLKVSGSKKTVVAFIVMPAKNNSFTVEALKGQAEVRALENTVHEVTTSIGKRIFDHAIRYPHNGLTTELPTDLGELLKSSDKVMLKRRILALRRPEGQLPPIVTHNMVDDANDLILNKIRQVQLFNSPSDRVKMIFHPEFLNANNPILGLDYDEFVRGCHLGVFPSYYEPWGYTPAECTVMGVPSITTNVSGFGAYMEDLIETNQAKDYGIYIVDRRFKAPDESVEQLVDYMEEFVKKTRAQRINQRNRTEALSDLLDWKRMGLEYVKARQLALRRGYPDQFRELVGEELNDSNMDALAGGKKLKVARPLSVPGSPRDLRSNSTVYMTPGDLGTLQEVNNADDYFSLGVNPAADDDDDGPYADDS | – | 4
3 | yGsy2-R581C/R592C (enzyme, Saccharomyces cerevisiae) MSRDLQNHLLFETATEVANRVGGIYSVLKSKAPITVAQYKDHYHLIGPLNKATYQNEVDILDWKKPEAFSDEMRPVQHALQTMESRGVHFVYGRWLIEGAPKVILFDLDSVRGYSNEWKGDLWSLVGIPSPENDFETNDAILLGYTVAWFLGEVAHLDSQHAIVAHFHEWLAGVALPLCRKRRIDVVTIFTTHATLLGRYLCASGSFDFYNCLESVDVDHEAGRFGIYHRYCIERAAAHSADVFTTVSQITAFEAEHLLKRKPDGILPNGLNVIKFQAFHEFQNLHALKKEKINDFVRGHFHGCFDFDLDNTLYFFIAGRYEYKNKGADMFIEALARLNYRLKVSGSKKTVVAFIVMPAKNNSFTVEALKGQAEVRALENTVHEVTTSIGKRIFDHAIRYPHNGLTTELPTDLGELLKSSDKVMLKRRILALRRPEGQLPPIVTHNMVDDANDLILNKIRQVQLFNSPSDRVKMIFHPEFLNANNPILGLDYDEFVRGCHLGVFPSYYEPWGYTPAECTVMGVPSITTNVSGFGAYMEDLIETNQAKDYGIYIVDRRFKAPDESVEQLVDYMEEFVKKTRCQRINQRNRTECLSDLLDWKRMGLEYVKARQLALRRGYPDQFRELVGEELNDSNMDALAGGKKLKVARPLSVPGSPRDLRSNSTVYMTPGDLGTLQEVNNADDYFSLGVNPAADDDDDGPYADDS | – | 4

From paper PMC5516924 (Biochemistry, 2016)
